Here are results for 1 molecule from patent publication US20090263380A1 (published 2009).

The Kd is the free concentration of one partner at which half of the binding sites on the other are occupied at equilibrium, for simple one-to-one binding. A high value points to lower affinity. As usually defined, the koff is the first-order rate constant of dissociation. Read a high koff as fast dissociation. The term kon denotes a measure of how fast the partners come together.

The target in assay [1] is T1, human monoclonal anti-C1 domain of Factor VIII antibody RHD5.
T1 construct: also called RHD5 antibody; RHD5 Ab
T1 sequence (VH, as listed by the source, chain 1 of 2): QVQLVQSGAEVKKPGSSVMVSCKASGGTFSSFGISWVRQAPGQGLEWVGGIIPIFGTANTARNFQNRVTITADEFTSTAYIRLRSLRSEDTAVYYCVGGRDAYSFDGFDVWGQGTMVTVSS
T1 sequence (VL, as listed by the source, chain 2 of 2): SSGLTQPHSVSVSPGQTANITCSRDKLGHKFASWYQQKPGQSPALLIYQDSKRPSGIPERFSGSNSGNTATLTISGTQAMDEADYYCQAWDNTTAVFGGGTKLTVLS
The experiment in a line: SPR (BIAcore), RHD5 immobilized on CM5, 18B6 infused. As for the experimental part: The binding kinetics of the anti-idiotypic antibody 18B6 to inhibitor RHD5 antibody was evaluated by use of the <<Surface plasmon resonance Biacore>> method using the Pharmacia Biosensor BIAcore (Pharmacia Biosensor AB, Uppsala, Sweden). The RHD5 antibodies were immobilized on the activated surface of a CM5 probe. The anti-idiotypic antibodies 18B6 were infused in different RHD5 concentrations immobilized on the surface of the probe. The association and dissociation constants were determined: […]
A general note: In SPR one partner is held on a chip, and binding of the other changes the refractive index at the surface.

The target in assay [2] is T1, human monoclonal anti-C1 domain of …. Description: cell-based or functional assay.
Assay [3] shares this target. The experiment in a line: competition ELISA, 18B6 with RHD5 2 µg/ml, RHD5 binding to coated recFVIII. The protocol:
Recombinant Factor VIII (recFVIII) (Baxter) at 2 μg/ml in a glycine buffer, 50 μl/well, was insolubilized, then left for 2 hours at room temperature. The RHD5 antibody (or an irrelevant IgG1) at 0.6 μg/ml final concentration was pre-incubated over 2 hours with the culture supernatants in a dilution 1/1, 1/2 and 1/4 in Magic Buffer. The wells were washed 3 times with a PBS/Tween buffer, then saturated with 100 μl/well of Magic Buffer (30 min at room temperature). Afterwards, the culture supernatant was incubated with 50 μl of RHD5 (or irrelevant IgG1) (2 hours at room temperature, Magic Buffer), then, 3 washings were performed. The RHD5 antibodies bound to insolubilized recFVIII were detected by addition of 50 μl/well of a mouse polyclonal human anti-IgG HRP-labelled (Southern Biotechnology) antibodies solution of 1 μg/ml in Magic Buffer. Three successive washings were carried out with PBS/Tween, then revelation carried out with a chromogen (OPD ortho-phenyl diamine) and a reading of the obtained coloration intensity with a reader having filters corresponding to wavelengths 490/650 nm (reader Emax Molecular Devithese, Sunnyvale, Calif.).
The inhibition of RHD5 antibody binding to insolubilized recombinant FVIII was measured according to the protocol described in point IV. The concentration of used RHD5 is equal to 2 μg/ml.
(In general: An ELISA detects its analyte on a solid surface through an enzyme-linked reagent.)

B1: anti-idiotypic antibody 18B6 (antibody, V domains shown)
VH: QVQLQQSGAELAKPGASVKMSCKASGYTFTTYWMHWIKQRPGQDLEWIGYINPTSGYTEYNQNFKDKATLTADKSSSTAYMQLNSLTSEDSAVYFCARSGAYYRYDDAMDSWGQGTSVTVSS
VL: QIVLSQSPAILSASPGEKVTMTCRASSSVSYMNWYQQKPGSSPKPWIYATSNLASGVPARFSGSGSGTSYSLTISRVEAEDAATYYCQQWSSNPPMLTFGAGTKLELK
notes: also called 18B6 anti-RHD5 clone
In assay [1], B1 had a dissociation constant (Kd) of 3.4 nM, an off-rate (koff) of 1.45e-05 s⁻¹ and an association rate constant (kon) of 4260 M⁻¹ s⁻¹. In addition, in assay [2], the “neutralisation of RHD5 inhibitory activity at an equimolar RHD5/18B6 ratio” value is 50%. Besides, in assay [3], the “inhibition of binding at an equimolar ratio (%)” value is 92% and the “molar ratio RHD5/18B6 giving 50% inhibition” value is 2.5 molar ratio RHD5/18B6.
